# According to article PMC12758282:
# Target: T1, RstA (Escherichia coli O157:H7 (EHEC; strain not given in the material)) (UniProt P52108)
# T1 sequence: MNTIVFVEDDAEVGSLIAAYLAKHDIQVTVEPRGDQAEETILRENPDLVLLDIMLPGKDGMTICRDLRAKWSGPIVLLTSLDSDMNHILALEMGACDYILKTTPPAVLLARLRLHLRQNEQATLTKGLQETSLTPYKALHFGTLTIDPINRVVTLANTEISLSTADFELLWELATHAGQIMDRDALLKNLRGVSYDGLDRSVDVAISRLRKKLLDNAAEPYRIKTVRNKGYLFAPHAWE
# Experiment: EMSA
sequence,measurement,value
GTTATCGCAGGGAGCCACACAGCGTGTGTTGGACGCGACTCAGCTTTACCTTGGTGAGATTGGTTATTCACCACTGTTAACGGCCGAAGAAGAAGTTTATTTTGCGCGTCGCGCACTGCGTGGAGATGTCGCCTCTCGCCGCCGGATGATCGAGAGTAACTTGCGTCTGGTGGTAAAA (double strand) [rpoS fragment],binding,no binding
